Reference: publication PMC5667739 (PLoS Pathogens, 2017)

B1: Nano-14 (VHH)
VHH: QVQLQESGGGLVQSGGSLRLSCAASRNINSMHVVGWYRQAPGNQRELVASITDDGSTDYVDSVKGRFTISRDIAENTVYLQMNSLNPEDTAVYYCKGTIVVFTTPMHYWGKGTQVTVSS
notes: also called N14; source: E. coli WK6 (pHEN6C vector), purified
B2: Nano-32 (VHH)
VHH: QVQLQESGGGLVQPGGSLRLSCAASGFTLGYYPIGWFRQAPGKGLEGVSCISGSGGSANYAASVKGRFTISRDNAKNTVYLQMNSLKPEDTAIYYCAADLSSLTTVQAMCVIPRPGFSAKAYDYWGLGTQVTVSS
B3: Nano-42 (VHH)
VHH: QVQLQESGGGLVQPGGSLRLSCAASGSVSRTYVMGWYRQTPGNQRELVATITSVGSTNYADSLKGRFTISRENAENTVYLQMNSLKPEDTAIYYCKYIRYSPIHAPLDYWGQGTQVTVSS
B4: Nano-27 (VHH)
VHH: QVQLQESGGGLVQPGGSLRLSCAASGTIFSRNIMGWYRQAPGKERELVASIYSDRSTWYAESVEGRFTISRDNVKNTLYLQMNSLKPEDTAMYYCRDRTLGSWGQGTQVTVSS
B5: Nano-26 (VHH)
VHH: QVQLQESGGGLVQPGGSLRLSCTAPRIIFFMYDVGWYRQAPEKQRELVAQINSDVSTKYADSVKGRFTISRDNAKRTVYLQMNDLKPEDAAVYYCNVRRASADYWGQGTQVTVSS
notes: also called N26; source: E. coli WK6 (pHEN6C vector), purified
B6: Nano-4 (VHH)
VHH: QVQLQESGGGLVQPGGSLRLFCAASGFTFSSYAMRWYRQAPGKERELVAAITSAGGSTHYADSVKERFTISRDNAKNTMYLQMNSLKPEDTAVYYCNARRDYGDSWFTAGGGYWGQGTQVTVSS

Legend:
Settings in all cases: both partners purified
[1] = biological target: T1, GII.10 P domain (Vietnam026) (norovirus GII.10 (Vietnam026)); experiment: ITC
T1 construct: source: E. coli, purified

[2] = biological target: T1, GII.10 P domain (Vietnam026); experiment: ELISA
[3] = biological target: T1, GII.10 P domain (Vietnam026); experiment: ITC; remark: listed apart in the source

| Binder | Kd [1] | dH [1] | lowest Nanobody concentration that detected the antigen (direct ELISA) [2] | stoichiometry N [3] |
| --- | --- | --- | --- | --- |
| B1 | 10.4 nM | -22 kcal/mol | 20 ng/mL | 0.5 Nanobody per P domain monomer |
| B2 | 60 nM | 5 kcal/mol | – | 1 Nanobody per P domain monomer |
| B3 | 0.809 nM | -9.84 kcal/mol | 20 ng/mL | 1 Nanobody per P domain monomer |
| B4 | 9.5 nM | -8.1 kcal/mol | – | 1 Nanobody per P domain monomer |
| B5 | 3.2 nM | -10 kcal/mol | 20 ng/mL | 1 Nanobody per P domain monomer |
| B6 | 35 nM | -12 kcal/mol | 20 ng/mL | 1 Nanobody per P domain monomer |
